Source: publication PMC7555893, “Structural role of essential light chains in the apicomplexan glideosome” (Communications Biology, 2020)

Legend:
[1] = biological target: Pre-complex of TgELC2 with TgMyoA-C (T. gondii) (UniProt O00934); assay: ITC; 200 uM protein (syringe) injected 19 x 2 uL into 20 uM pre-formed complex of light chain and MyoA peptide (cell, 1:1.1); 20 mM HEPES pH 7.5, 150 mM NaCl, 0.5 mM TCEP with 1 mM CaCl2; 25 °C; one-site model
[2] = biological target: Pre-complex of TgELC1 with TgMyoA-C (T. gondii) (UniProt O00934); assay: as above
[3] = biological target: Pre-complex of TgELC2 R17A with TgMyoA-C (T. gondii) (UniProt O00934); assay: as above
[4] = biological target: T. gondii essential light chain 1 (TgELC1) (T. gondii); assay: ITC; 200 uM peptide (syringe) injected 19 x 2 uL into 20 uM protein (cell); 20 mM HEPES pH 7.5, 150 mM NaCl, 0.5 mM TCEP with 5 mM EDTA; 25 °C; one-site model
[5] = biological target: T. gondii essential light chain 2 (TgELC2) (T. gondii); assay: as above
[6] = biological target: T. gondii essential light chain 1 (TgELC1) (T. gondii); assay: ITC; 200 uM peptide (syringe) injected 19 x 2 uL into 20 uM protein (cell); 20 mM HEPES pH 7.5, 150 mM NaCl, 0.5 mM TCEP with 5 mM CaCl2; 25 °C; one-site model
[7] = biological target: T. gondii essential light chain 2 (TgELC2) (T. gondii); assay: as above
[8] = biological target: TgELC2 E10A (T. gondii); assay: as above
[9] = biological target: TgELC2 E10A+H110A (T. gondii); assay: as above
[10] = biological target: TgELC2 F79A (T. gondii); assay: as above
[11] = biological target: TgELC2 S101A (T. gondii); assay: as above
[12] = biological target: TgELC2 S102A (T. gondii); assay: as above
[13] = biological target: TgELC2 S102E (phosphomimetic) (T. gondii); assay: as above
[14] = biological target: P. falciparum myosin A tail-interacting protein, short construct (MTIP-S) (P. falciparum 3D7) (UniProt Q8I4W8); assay: ITC; MTIP in the cell, PfMyoA peptide in the syringe; one-site model; the conditions of this titration are not told
[15] = biological target: T1, Pre-complex of MTIP-S with PfMyoA-C (P. falciparum 3D7 | P. falciparum, UniProt Q8I4W8;Q8IDR3); assay: ITC; 200 uM protein (syringe) injected 19 x 2 uL into 20 uM pre-formed complex of light chain and MyoA peptide (cell, 1:1.1); 20 mM HEPES pH 7.5, 150 mM NaCl, 0.5 mM TCEP with 1 mM CaCl2; 25 °C; one-site model; conditions: both partners purified
T1 construct: also called MTIP pre-complex with MyoA-C; MTIP/PfMyoA-C complex; source: formed from purified MTIP-S (E. coli) and the MyoA peptide in 1:1.1 molar ratio, 1 h at 4 °C
T1 sequence 1: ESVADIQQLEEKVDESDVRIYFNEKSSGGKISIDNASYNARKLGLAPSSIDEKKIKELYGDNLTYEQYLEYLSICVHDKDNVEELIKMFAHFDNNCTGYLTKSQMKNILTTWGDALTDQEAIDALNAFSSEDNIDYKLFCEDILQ
T1 sequence 2: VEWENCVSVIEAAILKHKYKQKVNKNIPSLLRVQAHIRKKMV

[16] = biological target: T2, MTIP residues 77-204 (P. falciparum 3D7, UniProt Q8I4W8 77-204); assay: crystal structure; conditions: both partners purified
T2 construct: source: recombinantly expressed as a dimeric complex with PfMyoA-C, purified with PfELC (NiNTA IMAC, TEV, SEC)
T2 sequence: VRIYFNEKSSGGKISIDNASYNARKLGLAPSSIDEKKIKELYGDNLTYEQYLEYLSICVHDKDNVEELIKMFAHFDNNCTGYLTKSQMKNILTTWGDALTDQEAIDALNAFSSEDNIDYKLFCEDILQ

With MLC1-S Q169A (domain or fragment) the Kd [1] was 2.3 nM, the dH [1] was -48.8 kcal/mol and the stoichiometry N [1] was 0.89.

Work on “T. gondii myosin light chain 1, short construct (MLC1-S) (domain or fragment)” yielded a Kd [2] of 4.7 nM, a dH [2] of -39.1 kcal/mol and a Kd [3] of 4.6 nM. The dH [3] was -49.7 kcal/mol, the Kd [1] was 0.6 nM and the dH [1] was -47.6 kcal/mol. For the same molecule, the stoichiometry N [1] was 0.81.

In the case of MLC1-S K168A (domain or fragment), the Kd [1] is reported as 1.2 nM, the dH [1] is reported as -47.7 kcal/mol and the stoichiometry N [1] is reported as 0.79.

For “TgMyoA-C^ELC peptide (from UniProt O00934 777-798)”, the Kd [4] was 57 nM, the dH [4] was -13 kcal/mol and the stoichiometry N [4] was 0.81. For the same molecule, the Kd [5] was 82 nM, the dH [5] was -18 kcal/mol and the stoichiometry N [5] was 0.77. It also gave a Kd [6] of 36 nM, a dH [6] of -13 kcal/mol and a stoichiometry N [6] of 1.05. The Kd [7] was 39 nM, the dH [7] was -15 kcal/mol and the stoichiometry N [7] was 0.85. The Kd [8] was 190 nM, the dH [8] was -17 kcal/mol and the stoichiometry N [8] was 0.79. The Kd [9] was 1100 nM, the dH [9] was -21 kcal/mol and the stoichiometry N [9] was 0.75. For the same molecule, the Kd [10] was 280 nM, the dH [10] was -18 kcal/mol and the stoichiometry N [10] was 0.84. The Kd [11] was 280 nM, the dH [11] was -18 kcal/mol and the stoichiometry N [11] was 0.88. The Kd [12] was 76 nM, the dH [12] was -16 kcal/mol and the stoichiometry N [12] was 0.79. The Kd [13] was 140 nM, the dH [13] was -18 kcal/mol and the stoichiometry N [13] was 0.77.

For PfMyoA-C^ELC peptide, the Kd [14] was 303 nM, the dH [14] was -14.4 kcal/mol and the stoichiometry N [14] was 0.74.

B1: P. falciparum essential light chain (PfELC) (natural protein)
chain: MASDMEEKFREAFILFSSCSDHIEMYKFFELMNSFGIILTNDEKAALPNDINMDYWLNFAKKHYNYEQPFKHINNVNEQNTNVQIKIDNFLGIMKALDTRLTESDLNILLQITNPENKSTLNLKTVSQKLTESI
notes: also called full-length PfELC; source: E. coli BL21-CodonPlus(DE3)-RIL, purified (Ni-IMAC, TEV, SEC)
In the case of B1, the Kd [15] is reported as 109 ± 6.2 nM, the dH [15] is reported as -13.4 ± 0.1 kcal/mol and the “stoichiometry N” value [15] is reported as 0.86 ± 0.01.

B2: PfELC S127D (phosphomimetic) (natural protein)
chain: MASDMEEKFREAFILFSSCSDHIEMYKFFELMNSFGIILTNDEKAALPNDINMDYWLNFAKKHYNYEQPFKHINNVNEQNTNVQIKIDNFLGIMKALDTRLTESDLNILLQITNPENKSTLNLKTVDQKLTESI
notes: source: E. coli, purified (expressed and purified under identical conditions as the wild type)
In the case of B2, the Kd [15] is reported as 260 ± 26 nM, the dH [15] is reported as -12.6 ± 0.2 kcal/mol and the “stoichiometry N” value [15] is reported as 0.81 ± 0.01.

VEWENCVSVIEAAILKHKYKQKVNKNIPSLLRVQAHIRKKMV (domain or fragment) [PfMyoA-C (775-816), recombinant, expressed with MTIP 77-204]: binds [16].
